Measurements as given in patent US20090317401A1.
Blank lines part the entries; values can stand above or below the substance they belong to.

Columns and labels:
Test in all cases: cell-based or functional assay
[1] = target: CD16 receptor on PB-NK cells (human) (UniProt P08637)
[2] = target: HLA-C expressed on K562class I+ cells (human) (UniProt P10321)
[3] = target: human CD160 receptor (human) (UniProt O95971)
UniProt O95971, sequence (O95971 25-159): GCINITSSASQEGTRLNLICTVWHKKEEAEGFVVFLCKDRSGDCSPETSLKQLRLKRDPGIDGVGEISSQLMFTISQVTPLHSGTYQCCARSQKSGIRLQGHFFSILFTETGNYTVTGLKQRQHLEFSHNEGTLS

UniProt P10321, sequence (P10321 25-366): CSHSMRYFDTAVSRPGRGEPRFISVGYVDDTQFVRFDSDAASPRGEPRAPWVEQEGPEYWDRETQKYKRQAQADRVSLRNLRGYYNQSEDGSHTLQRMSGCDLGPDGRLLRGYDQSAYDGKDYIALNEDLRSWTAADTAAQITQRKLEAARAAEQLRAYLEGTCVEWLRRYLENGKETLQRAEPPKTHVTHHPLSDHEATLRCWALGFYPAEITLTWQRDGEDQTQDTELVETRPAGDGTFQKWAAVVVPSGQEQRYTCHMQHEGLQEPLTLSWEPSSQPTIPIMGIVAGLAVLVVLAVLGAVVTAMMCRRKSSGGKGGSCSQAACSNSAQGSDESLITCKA
UniProt P08637, sequence (P08637 17-254): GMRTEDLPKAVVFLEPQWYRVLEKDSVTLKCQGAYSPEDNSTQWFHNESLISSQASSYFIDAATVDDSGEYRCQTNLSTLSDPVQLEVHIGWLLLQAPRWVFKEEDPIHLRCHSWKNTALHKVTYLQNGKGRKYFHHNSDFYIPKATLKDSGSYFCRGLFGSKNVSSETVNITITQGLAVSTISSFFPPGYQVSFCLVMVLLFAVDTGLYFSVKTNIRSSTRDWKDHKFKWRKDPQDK

IFN-γ production by PB-NK after mAb cross-linking of CD16, against CD160 engagement [1]: 30 fold less
Substance: 3G8 anti-CD16 mAb (IgG1; Beckman-Coulter) (antibody)

IFN-γ production by PB-NK co-cultured with K562Class-I+ in the presence of blocking anti-HLA-C mAb [2]: 1150 pg/mL
IL-6 production by PB-NK co-cultured with K562Class-I+ in the presence of blocking anti-HLA-C mAb [2]: 370 pg/mL
TNF-α production by PB-NK co-cultured with K562Class-I+ in the presence of blocking anti-HLA-C mAb [2]: 64 pg/mL
Substance: W6/32 anti-HLA mAb (IgG2a; ATCC HB-95) (antibody)

IFN-γ production by PB-NK co-cultured 16 h with K562-Cw5 (Cytometric Bead Array) [3]: 20100 pg/mL
IL-6 production by PB-NK co-cultured 16 h with K562-Cw5 (Cytometric Bead Array) [3]: 689 pg/mL
TNF-α production by PB-NK co-cultured 16 h with K562-Cw5 (Cytometric Bead Array) [3]: 389 pg/mL
Substance: HLA-Cw5 on K562-HLA-Cw5 transfectants (ligand)

IFN-γ production by PB-NK co-cultured 16 h with K562Class-I+ (Cytometric Bead Array) [3]: 29400 pg/mL
IFN-γ production by PB-NK co-cultured with K562Class-I+ in the presence of IgG1 isotype control [3]: 23100 pg/mL
IFN-γ production by PB-NK co-cultured with K562Class-I+ in the presence of IgG2a isotype control [3]: 16100 pg/mL
IL-6 production by PB-NK co-cultured 16 h with K562Class-I+ (Cytometric Bead Array) [3]: 620 pg/mL
IL-6 production by PB-NK co-cultured with K562Class-I+ in the presence of IgG1 isotype control [3]: 414 pg/mL
IL-6 production by PB-NK co-cultured with K562Class-I+ in the presence of IgG2a isotype control [3]: 478 pg/mL
TNF-α production by PB-NK co-cultured 16 h with K562Class-I+ (Cytometric Bead Array) [3]: 334 pg/mL
TNF-α production by PB-NK co-cultured with K562Class-I+ in the presence of IgG1 isotype control [3]: 200 pg/mL
TNF-α production by PB-NK co-cultured with K562Class-I+ in the presence of IgG2a isotype control [3]: 215 pg/mL
Substance: HLA-C expressed on K562class I+ cells (from UniProt P10321 25-366) (ligand)
